{"source": "paper PMC11494953", "about": "(2024)", "target": "EV-A71 2C protein (analyte of the SPR assay) (Enterovirus A71 (strain ), UniProt Q66478 1112-1440)", "assay": "SPR", "data": [{"binder": "UBE3C protein (TP315110, ORIGENE) (enzyme) MFSFEGDFKTRPKVSLGGASRKEEKASLLHRTQEERRKREEERRRLKNAIIIQSFIRGYRDRKQQYSIQRSAFDRCATLSQSGGAFPIANGPNLTLLVRQLLFFYKQNEDSKRLIWLYQNLIKHSSLFVKQLDGSERLTCLFQIKRLMSLCCRLLQNCNDDSLNVALPMRMLEVFSSENTYLPVLQDASYVVSVIEQILHYMIHNGYYRSLYLLINSKLPSSIEYSDLSRVPIAKILLENVLKPLHFTYNSCPEGARQQVFTAFTEEFLAAPFTDQIFHFIIPALADAQTVFPYEPFLNALLLIESRCSRKSGGAPWLFYFVLTVGENYLGALSEEGLLVYLRVLQTFLSQLPVSPASASCHDSASDSEEESEEADKPSSPEDGRLSVSYITEECLKKLDTKQQTNTLLNLVWRDSASEEVFTTMASVCHTLMVQHRMMVPKVRLLYSLAFNARFLRHLWFLISSMSTRMITGSMVPLLQVISRGSPMSFEDSSRIIPLFYLFSSLFSHSLISIHDNEFFGDPIEVVGQRQSSMMPFTLEELIMLSRCLRDACLGIIKLAYPETKPEVREEYITAFQSIGVTTSSEMQQCIQMEQKRWIQLFKVITNLVKMLKSRDTRRNFCPPNHWLSEQEDIKADKVTQLYVPASRHVWRFRRMGRIGPLQSTLDVGLESPPLSVSEERQLAVLTELPFVVPFEERVKIFQRLIYADKQEVQGDGPFLDGINVTIRRNYIYEDAYDKLSPENEPDLKKRIRVHLLNAHGLDEAGIDGGGIFREFLNELLKSGFNPNQGFFKTTNEGLLYPNPAAQMLVGDSFARHYYFLGRMLGKALYENMLVELPFAGFFLSKLLGTSADVDIHHLASLDPEVYKNLLFLKSYEDDVEELGLNFTVVNNDLGEAQVVELKFGGKDIPVTSANRIAYIHLVADYRLNRQIRQHCLAFRQGLANVVSLEWLRMFDQQEIQVLISGAQVPISLEDLKSFTNYSGGYSADHPVIKVFWRVVEGFTDEEKRKLLKFVTSCSRPPLLGFKELYPAFCIHNGGSDLERLPTASTCMNLLKLPEFYDETLLRSKLLYAIECAAGFELS", "values": [{"measurement": "Kd", "result": 72.1, "unit": "µM"}]}]}
